Source: the supplement of paper PMC9170038

Tested on: MS2 coat protein
Assay: apparent KD of MS2 coat protein; designed switch direction (-1 OFF switch, 1 ON switch): -1; higher = weaker reporter binding
Summary of the method: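 An oligonucleotide input, 200 uM small-molecule ligand, or no input was present during titration of SNAP-549-labelled MS2 coat protein, which was doubled from 0.7 or 1.5 nM to 3 µM. Designed RNA switches had been transcribed on Illumina chips by stalled E. coli RNA polymerase. Apparent KD per design is the median over clusters of curves fitted to normalised cluster fluorescence.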

[1] = input ligand: microRNA oligo, concentration not stated
[2] = Eterna round: R95, input ligand: microRNA oligo, concentration not stated

Row | Sequence | apparent KD of MS2 coat protein (input ligand: FMN 200 uM) [nM] | apparent KD of MS2 coat protein [1] [nM] | apparent KD of MS2 coat protein (input ligand: none) [nM] | apparent KD of MS2 coat protein [2] [nM]
1 | CCGUUCCGUGUAGGAUAUUGGCCCACCACGGGCCGAGAAGGACAUGAGGAUCACCCAUGUAUGCUAUUAUCGCGCGUGGCGCCC [Design 100] (Eterna round: R96, puzzle: Exclusion NG 1) | 148 | 14.8 | 24.2 | –
2 | CCGUUGUCAGGAUAUCGUGCAUACAACGAAAGUUCUAUGUGCGAGAAGGGACAUGAGGAUCACCCAUGUUACGG [Omei Ex4 A1] (Eterna round: R97, puzzle: Exclusion 4) | 90.3 | – | 41.2 | –
3 | CCUAAAUCCUAGGAUAUGCUAGACGAAAGUCUAGCAGAAGGAGGAACAUGAGGAUCACCCAUGUGUCCUAUAGG [Mat - Exclusion 6 - Eli Mod - D31] (Eterna round: R97, puzzle: Exclusion 6) | 20.6 | – | 16.5 | –
4 | CCUAGUUGGUAAGGAUAUCCUACACUAUUCUGACCCGUGCAAGCUACAUGAGGAUCACCCAUGUGGGAGAAGGUGCGUUAACGU [Design 9] (Eterna round: R96, puzzle: Exclusion NG 2) | 31.2 | 23.4 | 26.7 | –
5 | CCUCAGUAAGGAUAUCAGCUUAGUAGGUUGGUAAUGAGAGCUGAGAAGGUACAUGAGGAUCACCCAUGUUAGUU [JL Zatite mod 10] (puzzle: Exclusion 4) | – | – | – | 28.8
6 | CCUCCACAUGAGGAUCACCCAUGUCAGGAUAUAGGAUUGCUAUCAUGAGAGGAUGGCGUUAGAAGGGACAUCAC [Eternabot (L1) Solution 69] (Eterna round: R97, puzzle: Exclusion 1) | 44.5 | – | 40 | –
7 | CCUCCACAUGAGGAUCACCCAUGUCAGGAUAUCGUGUGUGCGUUUUCGGUCUUUCGUGCGAGAAGGGACGUCUG (puzzle: Exclusion 1) | – | – | – | 52.7
8 | CCUCCCUGAGGAUAUCCACCCUCAUACAUGAGGAUCACCCAUGUUCAUCCGUGGGUACCCGGAGAAGGCAGAUCUC [Megrez-b] (Eterna round: R97, puzzle: Exclusion 5) | 81 | – | 85.9 | –
9 | CCUCCGGUGCGAGGAUAUCUGGCGGCCGCCGGUGGAGAAGGCGUACAUGAGGAUCACCCAUGUCCAGCGUGCUCCUCGCUGGUU [0.15] (Eterna round: R96, puzzle: Exclusion NG 1) | 75 | 19.9 | 31 | –
10 | CCUCGACAUGAGGAUCACCCAUGUAAGGAUAUAAGUGCAGAGGGCGCGUAAUUAAUCGUGAGAAGGUACAACAC (Eterna round: R97, puzzle: Exclusion 1) | 32.1 | – | 31.1 | –
11 | CCUCGACAUGAGGAUCACCCAUGUCAGGAUAUUGUGUCUCGGGUUUUUUACCGAAAGGCGAGAAGGGAUGUGUG [LRO-Excl1-12] (puzzle: Exclusion 1) | – | – | – | 13.9
12 | CCUCGACAUGAGGAUCACCCAUGUCAGGAUAUUGUGUCUCGGGUUUUUUACCGAUAGGCAAGAAGGGAUGUGUG [LRO-Excl1-13] (puzzle: Exclusion 1) | – | – | – | 21.5
13 | CCUCGACAUGAGGAUCACCCAUGUCAGGAUAUUGUGUUUCGGGUUUUUUACCGUUAGGCAAGAAGGGAUGUGUG [LRO-Excl1-15] (puzzle: Exclusion 1) | – | – | – | 25.1
14 | CCUCGUUGGGAGGAUAUCCUUUAGAUUGGAGGAGGAGAAGGCUCGACAUGAGGAUCACCCAUGUGGGAUUUCCC [-24.6, -21.9 kcal, A 23%] (Eterna round: R97, puzzle: Exclusion 6) | 127 | – | 35.6 | –
15 | CCUCUACAUGAGGAUCACCCAUGUCAGGAUAUCGUGUGUUUUUUUUCGGCCGCGCGUGCGAGAAGGGACGUCUU (Eterna round: R96, puzzle: Exclusion 1) | 35.2 | 26 | 36.2 | –
16 | CCUCUACAUGAGGAUCACCCAUGUCAGGAUAUCGUGUGUUUUUUUUCGGCCGCGCGUGCGAGAAGGGACGUCUU (puzzle: Exclusion 1) | – | – | – | 30.1
